One molecule from article PMC8501970, “Structural basis for activation of Swi2/Snf2 ATPase RapA by RNA polymerase” (Nucleic Acids Research, 2021) can be followed below.

The target of one test is T1, RNAP β subunit (Escherichia coli, UniProt P0A8V2 1-1342).
T1 construct: RNA polymerase beta subunit, Escherichia coli, as in the core enzyme m2; Stood in the structure as a subunit of the RNAP elongation complex; also called β flap tip helix (FTH) lies in it; source: part of the purified E. coli RNAP core enzyme
T1 sequence (P0A8V2 whole entry): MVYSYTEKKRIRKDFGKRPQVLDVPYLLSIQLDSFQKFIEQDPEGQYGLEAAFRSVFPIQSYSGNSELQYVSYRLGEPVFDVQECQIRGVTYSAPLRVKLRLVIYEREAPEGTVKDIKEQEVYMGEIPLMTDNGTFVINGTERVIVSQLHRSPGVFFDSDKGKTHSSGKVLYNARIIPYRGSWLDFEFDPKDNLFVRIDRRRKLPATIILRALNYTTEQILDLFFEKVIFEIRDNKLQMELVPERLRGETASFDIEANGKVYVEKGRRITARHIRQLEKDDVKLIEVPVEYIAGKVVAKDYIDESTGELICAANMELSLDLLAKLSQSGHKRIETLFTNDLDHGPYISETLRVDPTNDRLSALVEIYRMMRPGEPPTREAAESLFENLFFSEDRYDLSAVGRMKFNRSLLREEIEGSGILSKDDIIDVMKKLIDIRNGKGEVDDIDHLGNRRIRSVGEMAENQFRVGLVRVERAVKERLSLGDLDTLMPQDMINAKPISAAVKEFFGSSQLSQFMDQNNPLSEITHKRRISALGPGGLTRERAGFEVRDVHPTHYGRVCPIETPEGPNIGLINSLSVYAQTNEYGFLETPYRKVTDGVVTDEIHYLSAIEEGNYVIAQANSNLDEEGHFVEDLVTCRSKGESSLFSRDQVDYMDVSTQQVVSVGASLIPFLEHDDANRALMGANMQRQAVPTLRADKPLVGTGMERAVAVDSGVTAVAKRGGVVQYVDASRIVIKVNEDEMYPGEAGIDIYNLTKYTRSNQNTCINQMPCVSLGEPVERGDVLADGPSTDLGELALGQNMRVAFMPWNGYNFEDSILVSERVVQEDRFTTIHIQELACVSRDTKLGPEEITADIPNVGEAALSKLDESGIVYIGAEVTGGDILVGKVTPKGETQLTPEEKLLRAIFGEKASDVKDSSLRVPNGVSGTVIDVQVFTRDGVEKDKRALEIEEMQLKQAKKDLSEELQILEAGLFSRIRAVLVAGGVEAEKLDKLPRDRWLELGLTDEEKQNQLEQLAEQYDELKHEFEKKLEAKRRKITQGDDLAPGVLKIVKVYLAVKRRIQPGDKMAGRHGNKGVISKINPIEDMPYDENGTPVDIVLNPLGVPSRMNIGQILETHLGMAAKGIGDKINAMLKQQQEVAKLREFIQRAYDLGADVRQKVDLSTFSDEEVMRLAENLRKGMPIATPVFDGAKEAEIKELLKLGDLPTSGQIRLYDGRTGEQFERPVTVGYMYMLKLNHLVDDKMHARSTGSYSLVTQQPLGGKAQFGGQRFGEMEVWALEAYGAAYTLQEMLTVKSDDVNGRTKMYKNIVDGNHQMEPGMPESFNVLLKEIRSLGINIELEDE
Nature of the test: cryo-EM structure; RapA–RNAP complex purified by gel filtration, 10 μM incubated with 25 μM DNA/RNA hybrid in 20 mM Tris–HCl pH 7.5, 50 mM NaCl, 5 mM MgCl2, 0.2 mM AMPPNP at 37°C for 10 min; 8 mM CHAPSO added before grids; 3.4 Å map. The settings on record: both partners purified. In general terms: In gel filtration, larger molecules generally elute earlier.

The target in a further test is T2, RNAP β' subunit (Escherichia coli, UniProt P0A8T7 1-1407).
T2 construct: RNA polymerase beta' subunit, Escherichia coli, as in the core enzyme m2; Stood in the structure as a subunit of the RNAP elongation complex; source: part of the purified E. coli RNAP core enzyme
T2 sequence (P0A8T7 whole entry): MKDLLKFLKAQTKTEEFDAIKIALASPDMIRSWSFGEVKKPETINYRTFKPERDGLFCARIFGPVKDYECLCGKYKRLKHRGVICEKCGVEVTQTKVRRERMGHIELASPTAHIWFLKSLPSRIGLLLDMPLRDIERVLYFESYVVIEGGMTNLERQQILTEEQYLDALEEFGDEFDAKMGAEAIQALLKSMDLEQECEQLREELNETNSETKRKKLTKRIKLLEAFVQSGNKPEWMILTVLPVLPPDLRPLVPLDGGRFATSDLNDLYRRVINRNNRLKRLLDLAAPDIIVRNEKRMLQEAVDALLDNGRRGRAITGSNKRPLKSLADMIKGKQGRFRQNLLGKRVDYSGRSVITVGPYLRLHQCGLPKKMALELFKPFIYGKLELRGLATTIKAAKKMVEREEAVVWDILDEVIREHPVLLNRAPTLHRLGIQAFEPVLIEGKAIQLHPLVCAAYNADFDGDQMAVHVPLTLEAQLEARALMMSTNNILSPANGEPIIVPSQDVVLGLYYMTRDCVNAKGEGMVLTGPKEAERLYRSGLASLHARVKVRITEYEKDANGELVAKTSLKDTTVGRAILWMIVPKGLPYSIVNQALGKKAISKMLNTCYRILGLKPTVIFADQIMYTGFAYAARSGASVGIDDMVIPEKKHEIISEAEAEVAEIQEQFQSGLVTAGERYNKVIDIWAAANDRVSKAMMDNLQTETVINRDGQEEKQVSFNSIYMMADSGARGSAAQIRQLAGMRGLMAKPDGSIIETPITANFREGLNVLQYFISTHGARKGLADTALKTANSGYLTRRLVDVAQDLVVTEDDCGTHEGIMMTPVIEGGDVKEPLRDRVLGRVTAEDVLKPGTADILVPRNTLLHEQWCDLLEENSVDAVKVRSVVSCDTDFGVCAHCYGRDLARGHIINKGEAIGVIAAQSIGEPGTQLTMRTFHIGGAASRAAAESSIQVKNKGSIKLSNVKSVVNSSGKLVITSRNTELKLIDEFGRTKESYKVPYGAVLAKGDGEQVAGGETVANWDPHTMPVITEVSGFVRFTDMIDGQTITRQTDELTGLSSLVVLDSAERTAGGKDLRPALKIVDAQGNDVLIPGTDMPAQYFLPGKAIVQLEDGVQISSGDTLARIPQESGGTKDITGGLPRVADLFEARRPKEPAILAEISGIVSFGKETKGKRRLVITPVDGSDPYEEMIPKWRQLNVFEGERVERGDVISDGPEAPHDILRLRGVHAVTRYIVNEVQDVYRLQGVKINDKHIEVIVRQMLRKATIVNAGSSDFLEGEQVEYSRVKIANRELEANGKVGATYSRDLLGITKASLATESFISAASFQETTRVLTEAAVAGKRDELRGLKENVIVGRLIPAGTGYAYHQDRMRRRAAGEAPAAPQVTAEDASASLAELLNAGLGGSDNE
Described as above. The conditions noted are these: both partners purified.

B1: N-terminal His-tagged RapA protein (enzyme, Escherichia coli)
chain: MPFTLGQRWISDTESELGLGTVVAVDARTVTLLFPSTGENRLYARSDSPVTRVMFNPGDTITSHDGWQMQVEEVKEENGLLTYIGTRLDTEESGVALREVFLDSKLVFSKPQDRLFAGQIDRMDRFALRYRARKYSSEQFRMPYSGLRGQRTSLIPHQLNIAHDVGRRHAPRVLLADEVGLGKTIEAGMILHQQLLSGAAERVLIIVPETLQHQWLVEMLRRFNLRFALFDDERYAEAQHDAYNPFDTEQLVICSLDFARRSKQRLEHLCEAEWDLLVVDEAHHLVWSEDAPSREYQAIEQLAEHVPGVLLLTATPEQLGMESHFARLRLLDPNRFHDFAQFVEEQKNYRPVADAVAMLLAGNKLSNDELNMLGEMIGEQDIEPLLQAANSDSEDAQSARQELVSMLMDRHGTSRVLFRNTRNGVKGFPKRELHTIKLPLPTQYQTAIKVSGIMGARKSAEDRARDMLYPERIYQEFEGDNATWWNFDPRVEWLMGYLTSHRSQKVLVICAKAATALQLEQVLREREGIRAAVFHEGMSIIERDRAAAWFAEEDTGAQVLLCSEIGSEGRNFQFASHMVMFDLPFNPDLLEQRIGRLDRIGQAHDIQIHVPYLEKTAQSVLVRWYHEGLDAFEHTCPTGRTIYDSVYNDLINYLASPDQTEGFDDLIKNCREQHEALKAQLEQGRDRLLEIHSNGGEKAQALAESIEEQDDDTNLIAFAMNLFDIIGINQDDRGDNMIVLTPSDHMLVPDFPGLSEDGITITFDREVALAREDAQFITWEHPLIRNGLDLILSGDTGSSTISLLKNKALPVGTLLVELIYVVEAQAPKQLQLNRFLPPTPVRMLLDKNGNNLAAQVEFETFNRQLNAVNRHTGSKLVNAVQQDVHAILQLGEAQIEKSARALIDAARNEADEKLSAELSRLEALRAVNPNIRDDELTAIESNRQQVMESLDQAGWRLDALRLIVVTHQ
notes: RapA (HepA), RNA polymerase-associated Swi2/Snf2 ATPase, Escherichia coli; construct of the cryo-EM sample; also called HepA
Consider B1, for which the binding result in the test with RNAP β subunit and with RNAP β' subunit was “binds” each time.
